# Measured values from patent US20250152742A1, “COMPOSITIONS AND METHODS FOR NEUROLOGICAL DISEASES” (Trames Bio, Inc., priority 2022, published 2025).
# Test system: engineered chimeric receptor SEQ ID NO: 33 and its mutants (human α7-nAChR ligand binding domain / human GlyRα1 ion pore domain) in Lenti-X 293T cells
# Test: YFP fluorescence quenching anion reporter plate reader assay (percent quench, EC50)
# Assay type: cell-based
# Conditions: for YFP fluorescence quenching using CNL001 (percent quench): receptor named in row; for YFP fluorescence quenching using Varenicline, 3 nM var: ligand Varenicline 3 nM; for YFP fluorescence quenching using Varenicline, 30 nM var: ligand Varenicline 30 nM; for YFP fluorescence quenching using Varenicline, 300 nM var: ligand Varenicline 300 nM; for YFP fluorescence quenching using Varenicline, 500 nM var: ligand Varenicline 500 nM; for YFP fluorescence quenching using Varenicline, 1 uM var: ligand Varenicline 1 uM
# Method in brief: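 Lenti-X 293T cells co-expressing an anion-quenchable YFP were transiently transfected with receptor DNA, then ligand was added in NaI-substituted buffer (pH 7.2) after 30 min at 37 °C. Fluorescence was read about 2 min; percent quench = mean of last 10 s over 15 s pre-ligand baseline.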
molecule,measurement,setting,value
"CODA405: engineered receptor: Y210V in SEQ ID NO: 33 (protein, synthetic sequence of chimeric LGIC) MRCSPGGVWLALAASLLHVSLQGEFQRKLYKELVKNYNPLERPVANDSQPLTVYFSLSLLQIMDVDEKNQVLTTNIWLQMSWTDHYLQWNVSEYPGVKTVRFPDGQIWKPDILLYNSADERFDATFHTNVLVNSSGHCQYLPPGIFKSSCPMDLKNFPMDVQTCKLKFGSWSYGGWSLDLQMQEADISGYIPNGEWDLVGIPGKRSERFVECCKEPYPDVTFTVTMRRRMGYYLIQMYIPSLLIVILSWISFWINMDAAPARVGLGITTVLTMTTQSSGSRASLPKVSYVKAIDIWMAVCLLFVFSALLEYAAVNFVSRQHKELLRFRRKRRHHKSPMLNLFQEDEAGEGRFNFSAYGMGPACLQAKDGISVKGANNSNTTNPPPAPSKSPEEMRKLFIQRAKKIDKISRIGFPMAFLIFNMFYWIIYKIVRREDVHNQ",YFP fluorescence quenching using CNL001 (percent quench),"1 nM CNL001, first column so headed",−16.246%
same,YFP fluorescence quenching using CNL001 (percent quench),"1 nM CNL001, second column so headed",−4.217%
same,YFP fluorescence quenching using TC-5619/Bradanicline (percent quench),3 nM brd (TC-5619/Bradanicline),9.92%
same,YFP fluorescence quenching using CNL001 (percent quench),"10 nM CNL001, first column so headed",−6.142%
same,YFP fluorescence quenching using CNL001 (percent quench),"10 nM CNL001, second column so headed",−10.003%
same,YFP fluorescence quenching using TC-5619/Bradanicline (percent quench),30 nM brd (TC-5619/Bradanicline),4.37%
same,YFP fluorescence quenching using CNL001 (percent quench),"50 nM CNL001, first column so headed",−11.054%
same,YFP fluorescence quenching using CNL001 (percent quench),"50 nM CNL001, second column so headed",−10.06%
same,YFP fluorescence quenching using ABT-126 (percent quench),50 nM abt (ABT-126),−2.9%
same,YFP fluorescence quenching using CNL001 (percent quench),"100 nM CNL001, first column so headed",−3.832%
same,YFP fluorescence quenching using CNL001 (percent quench),"100 nM CNL001, second column so headed",−3.784%
same,YFP fluorescence quenching (percent quench),100 nM CNL002,−14.3%
same,YFP fluorescence quenching using ABT-126 (percent quench),100 nM abt (ABT-126),−2.06%
same,YFP fluorescence quenching using AZD-0328 (percent quench),100 nM azd0328,−8.13%
same,YFP fluorescence quenching using ABT-126 (percent quench),300 nM abt (ABT-126),−0.19%
same,YFP fluorescence quenching using AZD-0328 (percent quench),300 nM azd0328,−3.35%
same,YFP fluorescence quenching using TC-5619/Bradanicline (percent quench),300 nM brd (TC-5619/Bradanicline),59%
same,YFP fluorescence quenching using CNL001 (percent quench),"1 uM CNL001, first column so headed",1.129%
same,YFP fluorescence quenching using CNL001 (percent quench),"1 uM CNL001, second column so headed",7.1%
same,YFP fluorescence quenching (percent quench),1 uM CNL002,−7.56%
same,YFP fluorescence quenching using ABT-126 (percent quench),1 uM abt (ABT-126),−3.64%
same,YFP fluorescence quenching (percent quench),10 uM ach (acetylcholine),−6.31%
same,YFP fluorescence quenching (percent quench),30 uM CNL002,−2.02%
same,YFP fluorescence quenching using AZD-0328 (percent quench),30 uM azd0328,−2.86%
same,YFP fluorescence quenching (percent quench),100 uM ach (acetylcholine),−14.48%
same,YFP fluorescence quenching (percent quench),1 mM ach (acetylcholine),−2.82%
same,YFP fluorescence quenching (percent quench),3 mM ach (acetylcholine),1.06%
same,"YFP fluorescence quenching using Facinicline, 30 nM fac",ligand Facinicline 30 nM,−26.25
same,"YFP fluorescence quenching using Facinicline, 300 nM fac",ligand Facinicline 300 nM,−23.52
same,"YFP fluorescence quenching using Facinicline, 30 uM fac",ligand Facinicline 30 uM,0.83
same,"YFP fluorescence quenching using TC-6987, 1 uM tc6987",ligand TC-6987 1 uM,−22.63
same,"YFP fluorescence quenching using TC-6987, 10 uM tc6987",ligand TC-6987 10 uM,−23.03
same,"YFP fluorescence quenching using TC-6987, 500 uM tc6987",ligand TC-6987 500 uM,−40.88
same,"YFP fluorescence quenching using Varenicline, 3 nM var",first column,7.317
same,"YFP fluorescence quenching using Varenicline, 3 nM var",second column,7.643
same,"YFP fluorescence quenching using Varenicline, 30 nM var",first column,9.457
same,"YFP fluorescence quenching using Varenicline, 30 nM var",second column,9.134
same,"YFP fluorescence quenching using Varenicline, 300 nM var",first column,15.503
same,"YFP fluorescence quenching using Varenicline, 300 nM var",second column,11.954
same,"YFP fluorescence quenching using Varenicline, 500 nM var",first column,13.427
same,"YFP fluorescence quenching using Varenicline, 500 nM var",second column,10.784
same,"YFP fluorescence quenching using Varenicline, 1 uM var",first column,9.032
same,"YFP fluorescence quenching using Varenicline, 1 uM var",second column,11.591
